Experiments:
[1] = target: Flag-tagged wild-type endothelin type B receptor (ETBR) (human) (UniProt P24530)
[2] = target: wild-type ETB receptor, Flag-tagged, expressed in HEK293A cells (human) (UniProt P24530)
[3] = target: ETBR H314A (human) (UniProt P24530)
[4] = target: ETBR K391A (human) (UniProt P24530)
[5] = target: ETBR M296A (human) (UniProt P24530)
[6] = target: ETBR M300A (human) (UniProt P24530)
[7] = target: ETBR N134A (human) (UniProt P24530)
[8] = target: ETBR R318A (human) (UniProt P24530)
[9] = target: ETBR S390A (human) (UniProt P24530)
[10] = target: ETBR T324A (human) (UniProt P24530)
[11] = target: ETBR V325A (human) (UniProt P24530)
[12] = target: ETBR V389A (human) (UniProt P24530)
Sequence of ETBR V389A (human) (P24530 27-442 V389A): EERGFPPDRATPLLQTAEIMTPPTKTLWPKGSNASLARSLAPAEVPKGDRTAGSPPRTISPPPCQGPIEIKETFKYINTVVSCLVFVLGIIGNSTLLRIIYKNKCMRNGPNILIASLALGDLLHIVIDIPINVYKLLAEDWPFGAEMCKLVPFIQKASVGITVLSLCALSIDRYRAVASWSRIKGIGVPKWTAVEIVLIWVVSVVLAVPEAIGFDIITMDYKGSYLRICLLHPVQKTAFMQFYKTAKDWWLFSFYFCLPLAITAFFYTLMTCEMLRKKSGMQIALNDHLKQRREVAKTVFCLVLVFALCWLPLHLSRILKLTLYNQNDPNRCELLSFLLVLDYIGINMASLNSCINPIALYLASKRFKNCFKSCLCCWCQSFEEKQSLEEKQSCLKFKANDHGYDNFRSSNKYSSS

Sequence of LgBiT-inserted Gαi1, wild type (NanoBiT G-protein construct) (P63096 whole entry): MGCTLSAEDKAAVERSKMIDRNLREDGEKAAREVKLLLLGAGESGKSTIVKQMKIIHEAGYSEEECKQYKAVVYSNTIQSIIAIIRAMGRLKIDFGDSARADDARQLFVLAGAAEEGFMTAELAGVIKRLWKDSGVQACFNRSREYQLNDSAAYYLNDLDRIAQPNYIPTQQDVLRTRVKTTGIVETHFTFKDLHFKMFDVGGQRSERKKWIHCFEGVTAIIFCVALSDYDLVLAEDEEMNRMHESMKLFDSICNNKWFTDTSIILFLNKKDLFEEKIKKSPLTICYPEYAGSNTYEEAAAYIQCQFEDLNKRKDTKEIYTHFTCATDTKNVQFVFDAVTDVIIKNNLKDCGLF
Sequence of Flag-tagged wild-type endothelin type B receptor (ETBR) (human) (P24530 27-442): as the sequence (P24530 27-442 V389A) above, with A363V counted along it
Sequence of wild-type ETB receptor, Flag-tagged, expressed in HEK293A cells (human) (P24530 27-442): as the sequence (P24530 27-442 V389A) above, with A363V counted along it
Sequence of ETBR K391A (human) (P24530 27-442 K391A): as the sequence (P24530 27-442 V389A) above, with A363V, K365A counted along it
Sequence of ETBR V325A (human) (P24530 27-442 V325A): as the sequence (P24530 27-442 V389A) above, with V299A, A363V counted along it
Sequence of ETBR S390A (human) (P24530 27-442 S390A): as the sequence (P24530 27-442 V389A) above, with A363V, S364A counted along it
Sequence of ETBR H314A (human) (P24530 27-442 H314A): as the sequence (P24530 27-442 V389A) above, with H288A, A363V counted along it
Sequence of ETBR M300A (human) (P24530 27-442 M300A): as the sequence (P24530 27-442 V389A) above, with M274A, A363V counted along it
Sequence of ETBR T324A (human) (P24530 27-442 T324A): as the sequence (P24530 27-442 V389A) above, with T298A, A363V counted along it
Sequence of ETBR M296A (human) (P24530 27-442 M296A): as the sequence (P24530 27-442 V389A) above, with M270A, A363V counted along it
Sequence of ETBR R318A (human) (P24530 27-442 R318A): as the sequence (P24530 27-442 V389A) above, with R292A, A363V counted along it
Sequence of ETBR N134A (human) (P24530 27-442 N134A): as the sequence (P24530 27-442 V389A) above, with N108A, A363V counted along it

Substance: LgBiT-inserted Gαi1 N347A (from UniProt P63096 1-354) (natural protein)
- Supplementary Table 1f: Emax, %WT, of the ET-1 concentration–response in the NanoBiT Gi-protein dissociation assay, HEK293A cells [1]: 96.5 % of WT

Substance: Gαi1 G352A (LgBiT-inserted NanoBiT construct) (from UniProt P63096 1-354) (natural protein)
- NanoBiT Gi-protein dissociation assay, ET-1-induced, HEK293A cells, mutant Gαi against wild type [2]: 50 % decrease

Substance: LgBiT-inserted Gαi1, wild type (NanoBiT G-protein construct) (from UniProt P63096 1-354) (natural protein)
- Supplementary Table 1e: Emax, %WT, of the ET-1 concentration–response in the NanoBiT Gi-protein dissociation assay, HEK293A cells [3]: 90.2 % of WT
- Supplementary Table 1e: Emax, %WT, of the ET-1 concentration–response in the NanoBiT Gi-protein dissociation assay, HEK293A cells [4]: 91.2 % of WT
- Supplementary Table 1d: Emax, %WT, of the ET-1 concentration–response in the NanoBiT Gi-protein dissociation assay, HEK293A cells [5]: 36.2 % of WT
- Supplementary Table 1d: Emax, %WT, of the ET-1 concentration–response in the NanoBiT Gi-protein dissociation assay, HEK293A cells [6]: 46.9 % of WT
- Supplementary Table 1c: Emax, %WT, of the ET-1 concentration–response in the NanoBiT Gi-protein dissociation assay, HEK293A cells [7]: 54.6 % of WT
- Supplementary Table 1e: Emax, %WT, of the ET-1 concentration–response in the NanoBiT Gi-protein dissociation assay, HEK293A cells [8]: 88.2 % of WT
- Supplementary Table 1c: Emax, %WT, of the ET-1 concentration–response in the NanoBiT Gi-protein dissociation assay, HEK293A cells [9]: 28.8 % of WT
- Supplementary Table 1e: Emax, %WT, of the ET-1 concentration–response in the NanoBiT Gi-protein dissociation assay, HEK293A cells [10]: 77.3 % of WT
- Supplementary Table 1d: Emax, %WT, of the ET-1 concentration–response in the NanoBiT Gi-protein dissociation assay, HEK293A cells [11]: 63.5 % of WT
- Supplementary Table 1e: Emax, %WT, of the ET-1 concentration–response in the NanoBiT Gi-protein dissociation assay, HEK293A cells [12]: 96.3 % of WT
- Supplementary Table 1c: Emax, %WT, of the ET-1 concentration–response in the NanoBiT Gi-protein dissociation assay, HEK293A cells; WT (35% plasmid) [1]: 62.9 % of WT
- Supplementary Table 1c: Emax, %WT, of the ET-1 concentration–response in the NanoBiT Gi-protein dissociation assay, HEK293A cells; WT (50% plasmid) [1]: 76.5 % of WT
- Supplementary Table 1c: Emax, %WT, of the ET-1 concentration–response in the NanoBiT Gi-protein dissociation assay, HEK293A cells; WT (100% plasmid) [1]: 100 % of WT
- Supplementary Table 1f: Emax, %WT, of the ET-1 concentration–response in the NanoBiT Gi-protein dissociation assay, HEK293A cells; WT Gαi [1]: 100 % of WT
- Supplementary Table 1d (same row in 1e): Emax, %WT, of the ET-1 concentration–response in the NanoBiT Gi-protein dissociation assay, HEK293A cells; WT (100% plasmid) [1]: 100 % of WT

Substance: LgBiT-inserted Gαi1 L353A (from UniProt P63096 1-354) (natural protein)
- Supplementary Table 1f: Emax, %WT, of the ET-1 concentration–response in the NanoBiT Gi-protein dissociation assay, HEK293A cells [1]: 7.8 % of WT

Substance: Gαi1 K345A (LgBiT-inserted NanoBiT construct) (from UniProt P63096 1-354) (natural protein)
- NanoBiT Gi-protein dissociation assay, ET-1-induced, HEK293A cells, mutant Gαi against wild type [2]: 50 % decrease

Substance: LgBiT-inserted Gαi1 D350A (from UniProt P63096 1-354) (natural protein)
- Supplementary Table 1f: Emax, %WT, of the ET-1 concentration–response in the NanoBiT Gi-protein dissociation assay, HEK293A cells [1]: 92.2 % of WT

Substance: LgBiT-inserted Gαi1 F354A (from UniProt P63096 1-354) (natural protein)
- Supplementary Table 1f: Emax, %WT, of the ET-1 concentration–response in the NanoBiT Gi-protein dissociation assay, HEK293A cells [1]: 87.8 % of WT

Substance: LgBiT-inserted Gαi1 K345A (from UniProt P63096 1-354) (natural protein)
- Supplementary Table 1f: Emax, %WT, of the ET-1 concentration–response in the NanoBiT Gi-protein dissociation assay, HEK293A cells [1]: 48.9 % of WT

Substance: LgBiT-inserted Gαi1 G352A (from UniProt P63096 1-354) (natural protein)
- Supplementary Table 1f: Emax, %WT, of the ET-1 concentration–response in the NanoBiT Gi-protein dissociation assay, HEK293A cells [1]: 61.8 % of WT

Substance: LgBiT-inserted Gαi1 D341A (from UniProt P63096 1-354) (natural protein)
- Supplementary Table 1f: Emax, %WT, of the ET-1 concentration–response in the NanoBiT Gi-protein dissociation assay, HEK293A cells [1]: 92.1 % of WT

Substance: LgBiT-inserted Gαi1 C351A (from UniProt P63096 1-354) (natural protein)
- Supplementary Table 1f: Emax, %WT, of the ET-1 concentration–response in the NanoBiT Gi-protein dissociation assay, HEK293A cells [1]: 87 % of WT

Source: PMC11484851, “Structure of endothelin ETB receptor–Gi complex in a conformation stabilized by unique NPxxL motif” (Communications Biology, 2024)
